Target: extracellular matrix proteins (ELISA of Figure S3: 'In each case')
Assay: ELISA

Work on “capillary morphogenesis gene 2 (ANTXR2/CMG2), biotinylated CMG2-AviTag construct (from UniProt P58335 34-489) (receptor)” yielded a Kd of 500 to 1000 nM.
